Data taken from paper PMC11908141 (bioRxiv, 2025).

Target: the molecule itself
Experiment: cryo-EM structure

B1: enolase, native, Francisella novicida (enzyme)
chain: MSSQIKQVFARQILDSRGNPTVEVDVVLESGAFGRAAVPSGASTGIREALELRDGNKALFLGKSVYKAVENVNTKIAQAVKGLDALDQRLIDKTMIELDGSENKKNLGANAILGVSLATARAAASHLRKPFYRYLMDVKEYLMPVPMMNVINGGSHADNNVDMQEFMIVPAGFDTFSEALRCGTEVFHTLKKVLIADGYSVAGVGDEGGYAPDLPSNEAAIEAILKAVKEAGYEPGKHVFIALDPASSEFYKDGKYELKSENKSLTSEEMIDYYAAWVEKYPIVSIEDGLAEEDWAGWKLLTEKLGNKVQLVGDDLFVTNPSILAKGIEKGIANSILIKLNQIGTLTETFEAMAMAGQAGYTCVVSHRSGETSDTIIADLAVATCSGQIKTGSLSRSDRIAKYNQLLRIEEELGENAIYPGIKAFVFNSDEEVEEDVQEIIVEDSEAEKVVVQVEE
For B1, the “stoichiometry N” value was 2.
